This passage reports protein stability index results from the supplement of paper PMC10567573.

Sequences and labels used below:
B1: SNAP91 (parent)
chain: FAAPSPATTASPAKVDSSGVIDLF
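Note: lentivirally expressed fusions sorted by FACS into six bins by GFP to DsRed ratio, PSI derived from sequencing read proportions per bin multiplied by bin number.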

The variants in this data set derive from B1. Kind of data set: protein stability index of a GFP-peptide fusion (GPS, HEK-293T) (PSI 1-6); higher = more stable. As to conditions: c terminus: a fixed tail appended.
With FAAPDPATTASPAKVDSSGVIDLF [S5D], the protein stability index turned out to be 3.

Consider FAAPVPATTASPAKVDSSGVIDLF [S5V], for which the protein stability index turned out to be 2.64.

For the variant FAAPMPATTASPAKVDSSGVIDLF [S5M], the protein stability index is 2.24.

For FAAPSPATTASPAKVDSSGVIDNF [L23N], the protein stability index is 4.14.

Take FAAPSPATTASPAKVDSSGVIDWF [L23W]: the protein stability index turned out to be 2.55.

With FAAPSPATTASPAKVDSSGVIDKF [L23K], the protein stability index is 4.12.

Turning to FAAPSPATTASPAKVDSSGVIDTF [L23T], the protein stability index came to 3.74.

In the case of FAAPSPATTASPAKVDSSGVIDRF [L23R], the protein stability index was determined as 3.76.

With FAAPSPATTASPAKVDSSGVIDAF [L23A], the protein stability index worked out at 3.78.

Regarding FAAPSPATTASPAKVDSSGVIDGF [L23G], the protein stability index was determined as 3.51.

In the case of FAAPSPATTASPAKVDSSGVIDEF [L23E], the protein stability index came out at 4.4.

For FAAPSPATTASPAKVDSSGVIDSF [L23S], the protein stability index stood at 4.11.

On to FAAPSPATTASPAKVDSSGVIDHF [L23H], for which the protein stability index came out at 4.27.

Take FAAPSPATTASPGKVDSSGVIDLF [A13G]: the protein stability index was found to be 1.98.

Consider FAAPSPATTASPIKVDSSGVIDLF [A13I], for which the protein stability index worked out at 1.92.

FAAPSPATTASPPKVDSSGVIDLF [A13P]: the protein stability index came to 3.09.

Regarding FAAPSPATTASPSKVDSSGVIDLF [A13S], the protein stability index turned out to be 2.25.

With FAAPSPATTASPYKVDSSGVIDLF [A13Y], the protein stability index was determined as 1.83.

For FAAPSPATTASPQKVDSSGVIDLF [A13Q], the protein stability index stood at 2.37.

Consider FAAPSPATTASPLKVDSSGVIDLF [A13L], for which the protein stability index came to 2.43.

For the variant FAAPSPATTASPWKVDSSGVIDLF [A13W], the protein stability index was found to be 2.12.

For FAAPSPATTASPAKVGSSGVIDLF [D16G], the protein stability index turned out to be 2.11.

As for FAAPSPATTASPAKVKSSGVIDLF [D16K], the protein stability index stood at 2.17.

As for FAAPSPATTASPAKVQSSGVIDLF [D16Q], the protein stability index was 1.9.

As to FAAPSPATTASPAKVHSSGVIDLF [D16H], the protein stability index was 2.82.

As to FAAPSPATTASPAKVFSSGVIDLF [D16F], the protein stability index is 1.68.

Regarding FAAPSPATTASPAKVLSSGVIDLF [D16L], the protein stability index was determined as 2.6.

For the variant FAAPSPATTASPAKVCSSGVIDLF [D16C], the protein stability index stood at 1.54.

As for FAAPSPATTASPAKVDSSGVVDLF [I21V], the protein stability index is 3.22.

On to FAAPSPATTASPAKVDSSGVRDLF [I21R], for which the protein stability index came to 3.23.

Take FAAPSPATTASPAKVDSSGVFDLF [I21F]: the protein stability index came to 2.25.

Regarding FAAPSPATTASPAKVDSSGVADLF [I21A], the protein stability index is 2.49.

FAAPSPATTASPAKVDSSGVSDLF [I21S]: the protein stability index stood at 3.37.

FAAPSPATTASPAKVDSSGVHDLF [I21H]: the protein stability index came to 2.51.

In the case of FAAPSPATTASPAPVDSSGVIDLF [K14P], the protein stability index turned out to be 2.7.

On to FAAPSPATTASPASVDSSGVIDLF [K14S], for which the protein stability index was 2.29.

Regarding FAAPSPATTASPAQVDSSGVIDLF [K14Q], the protein stability index is 2.48.

For the variant FAAPSPATTASPAVVDSSGVIDLF [K14V], the protein stability index was 2.77.

With FAAPSPATTASPAEVDSSGVIDLF [K14E], the protein stability index worked out at 2.81.

As for FAAPSPATTASPACVDSSGVIDLF [K14C], the protein stability index worked out at 2.41.

On to FAAPSPATTASPAIVDSSGVIDLF [K14I], for which the protein stability index turned out to be 2.61.

As for FAACSPATTASPAKVDSSGVIDLF [P4C], the protein stability index was 1.56.

As for FAAASPATTASPAKVDSSGVIDLF [P4A], the protein stability index was 1.79.

Turning to FAATSPATTASPAKVDSSGVIDLF [P4T], the protein stability index is 1.67.

On to FAASSPATTASPAKVDSSGVIDLF [P4S], for which the protein stability index was 1.71.

As to FAAQSPATTASPAKVDSSGVIDLF [P4Q], the protein stability index is 2.2.

On to FAAHSPATTASPAKVDSSGVIDLF [P4H], for which the protein stability index came to 2.26.

In the case of FAALSPATTASPAKVDSSGVIDLF [P4L], the protein stability index amounted to 1.93.

With VAAPSPATTASPAKVDSSGVIDLF [F1V], the protein stability index was determined as 3.9.

With SAAPSPATTASPAKVDSSGVIDLF [F1S], the protein stability index turned out to be 3.56.

GAAPSPATTASPAKVDSSGVIDLF [F1G]: the protein stability index was determined as 4.43.

For the variant MAAPSPATTASPAKVDSSGVIDLF [F1M], the protein stability index was found to be 3.76.

Regarding DAAPSPATTASPAKVDSSGVIDLF [F1D], the protein stability index turned out to be 4.3.

For the variant CAAPSPATTASPAKVDSSGVIDLF [F1C], the protein stability index was 3.82.

On to YAAPSPATTASPAKVDSSGVIDLF [F1Y], for which the protein stability index was 2.3.

In the case of KAAPSPATTASPAKVDSSGVIDLF [F1K], the protein stability index worked out at 4.14.

For the variant FCAPSPATTASPAKVDSSGVIDLF [A2C], the protein stability index was 1.69.

FGAPSPATTASPAKVDSSGVIDLF [A2G]: the protein stability index was determined as 3.57.

Consider FHAPSPATTASPAKVDSSGVIDLF [A2H], for which the protein stability index came out at 1.63.

For FVAPSPATTASPAKVDSSGVIDLF [A2V], the protein stability index was determined as 1.69.

Turning to FIAPSPATTASPAKVDSSGVIDLF [A2I], the protein stability index came to 2.03.

In the case of FTAPSPATTASPAKVDSSGVIDLF [A2T], the protein stability index came out at 3.36.

With FQAPSPATTASPAKVDSSGVIDLF [A2Q], the protein stability index was 2.17.

As for FPAPSPATTASPAKVDSSGVIDLF [A2P], the protein stability index was 3.03.

On to FKAPSPATTASPAKVDSSGVIDLF [A2K], for which the protein stability index stood at 3.08.

As for FAAPSPATTASPAKVDSSGVISLF [D22S], the protein stability index turned out to be 1.76.

In the case of FAAPSPATTASPAKVDSSGVINLF [D22N], the protein stability index came out at 2.24.

As for FAAPSPATTASPAKVDSSGVIRLF [D22R], the protein stability index was 1.87.

For FAAPSPATTASPAKVDSSGVIKLF [D22K], the protein stability index stood at 2.11.

On to FAAPSPATTASPAKVDSSGVIALF [D22A], for which the protein stability index was determined as 2.03.

Take FAAPSPARTASPAKVDSSGVIDLF [T8R]: the protein stability index was determined as 2.24.

For FAAPSPAWTASPAKVDSSGVIDLF [T8W], the protein stability index was 2.33.

For the variant FAAPSPANTASPAKVDSSGVIDLF [T8N], the protein stability index is 2.58.

For the variant FAAPSPAFTASPAKVDSSGVIDLF [T8F], the protein stability index is 1.33.

For FAAPSPAATASPAKVDSSGVIDLF [T8A], the protein stability index was found to be 2.62.

Take FAAPSPASTASPAKVDSSGVIDLF [T8S]: the protein stability index turned out to be 2.52.

Consider FAAPSPAKTASPAKVDSSGVIDLF [T8K], for which the protein stability index came out at 2.42.

On to FAAPSPAVTASPAKVDSSGVIDLF [T8V], for which the protein stability index worked out at 2.85.

In the case of FAAPSPAMTASPAKVDSSGVIDLF [T8M], the protein stability index is 2.7.

Take FAAPSPATTAIPAKVDSSGVIDLF [S11I]: the protein stability index was found to be 2.3.

For the variant FAAPSPATTAEPAKVDSSGVIDLF [S11E], the protein stability index came out at 2.69.

On to FAAPSPATTAQPAKVDSSGVIDLF [S11Q], for which the protein stability index came to 2.56.

For FAAPSPATTACPAKVDSSGVIDLF [S11C], the protein stability index came to 2.14.

Take FAAPSPATTAKPAKVDSSGVIDLF [S11K]: the protein stability index came out at 2.6.

Regarding FAAPSPATTAYPAKVDSSGVIDLF [S11Y], the protein stability index amounted to 2.35.

On to FAAPSPATTALPAKVDSSGVIDLF [S11L], for which the protein stability index stood at 2.77.

Turning to FAAPSNATTASPAKVDSSGVIDLF [P6N], the protein stability index amounted to 2.94.

For FAAPSRATTASPAKVDSSGVIDLF [P6R], the protein stability index amounted to 1.95.

As for FAAPSDATTASPAKVDSSGVIDLF [P6D], the protein stability index worked out at 3.01.

On to FAAPSLATTASPAKVDSSGVIDLF [P6L], for which the protein stability index came to 1.49.

Turning to FAAPSSATTASPAKVDSSGVIDLF [P6S], the protein stability index was 2.65.

In the case of FAAPSQATTASPAKVDSSGVIDLF [P6Q], the protein stability index stood at 2.63.

With FAAPSKATTASPAKVDSSGVIDLF [P6K], the protein stability index came out at 2.16.

FAAPSCATTASPAKVDSSGVIDLF [P6C]: the protein stability index is 2.32.
